Columns and labels:
Type in all cases: binding
recombinant human FTH1 = molecular target: T1, recombinant human FTH1 (Homo sapiens, UniProt P02794); test: GST pull-down assay of recombinant FTH1 using GST-NCOA4; details: recombinant FTH1 from E. coli, 0.2 μg and 1 μg, FIG. 10A
T1 construct: made in house; host or cells: Rosetta E. coli (EMD Millipore, 70953-3)
Method: (§1) In the GST pull-down assay, lysates were incubated with 10 μl of a 50% (v/v) slurry of glutathione Sepharose 4B beads (GE Healthcare Lifesciences, 17-0756-01) for 30 minutes at 4° C. Beads were washed thoroughly with 150 mM NaCl, 20 mM Tris (pH 7.4), 2 mM dithiothreitol (DTT), 0.5% (w/v) Nonidet P-40, leaving 50-100 μg of GST-fusion protein bound to the beads. Beads were then mixed with 0.5-2 μg of apo-ferritin purified from equine spleen (Sigma F4503) or recombinant human FTH1 or FTL produced in Rosetta E. coli (EMD Millipore, 70953-3). The assay mix was incubated for 2 hours at 4° C., and beads were washed four times with 1 ml wash buffer. Proteins were eluted with SDS sample buffer and analyzed by 4-20% gradient SDS-PAGE and immunoblotting with anti-FTH1 antibody (as above) or anti-FLAG antibody (Sigma, F1804-200 UG). Pounceau stain was used to visualize GST-NCOA4 bands. (Pounceau, Sigma, P7170-1 L, protocol as per product manual).
(§2) To understand if there was subunit specificity for NCOA4 binding to ferritin, the NCOA4 C-terminus (aa 235-614) fusion protein was immobilized on glutathione Sepharose beads, as described in Example 1. Recombinant purified FTH1 or FTL produced in E. coli was added at concentrations of 0.2 μg and 1 μg, and binding was determined using the GST pull-down assay described in Example 1, above.

[1] = molecular target: T2, ferritin purified from horse spleen (mixture of FTH1 and FTL subunits) (Equus caballus, UniProt Q8MIP0); test: anti-MYC immunoprecipitation of in vitro translated MYC-NCOA4 constructs incubated with ferritin; details: anti-MYC IP, anti-FTH1 immunoblot, FIG. 5
T2 construct: ferritin purified from horse spleen; purchased Sigma A3641-100 mg; host or cells: horse spleen
T2 sequence (Q8MIP0 whole entry): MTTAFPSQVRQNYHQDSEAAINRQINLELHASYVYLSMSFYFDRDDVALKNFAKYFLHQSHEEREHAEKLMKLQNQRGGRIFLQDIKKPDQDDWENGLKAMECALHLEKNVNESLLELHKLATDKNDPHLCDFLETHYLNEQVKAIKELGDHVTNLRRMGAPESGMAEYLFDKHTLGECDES
T2 sequence (P02791 2-175 partner limits assumed): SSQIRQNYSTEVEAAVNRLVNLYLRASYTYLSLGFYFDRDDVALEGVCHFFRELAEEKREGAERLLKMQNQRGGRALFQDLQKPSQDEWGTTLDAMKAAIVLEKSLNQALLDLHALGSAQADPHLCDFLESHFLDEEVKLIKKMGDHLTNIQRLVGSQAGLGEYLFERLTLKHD
Method: To probe the interaction between ferritin and NCOA4, initial binding assays using MYC-tagged NCOA4 full-length and truncation constructs produced using an in vitro translation (“IVT”) system were conducted. MYC-NCOA4 fragments were cloned using PCR into a modified T7 cell-free expression vector (pT7CFE1-NMyc, #88863, Thermo Scientific). 1-Step Human Coupled IVT Kit—DNA from Thermo Scientific (product #88881) was used to produce MYC-tagged NCOA4 constructs as described in the product manual. Apoferritin (Sigma, A3641-100 mg) was added in a pull-down assay using anti-c-Myc Agarose Affinity Gel antibody produced in rabbit (Sigma, A7470-1 ML). Affinity purification reactions were washed thoroughly with 150 mM NaCl, 20 mM Tris (pH 7.4), and 2 mM dithiothreitol. Proteins were eluted with SDS sample buffer and analyzed by 4-20% gradient SDS-PAGE and immunoblotting with anti-FTH1 antibody (Cell Signaling 3998; Western blot 1:1,000) or anti-MYC antibody (Santa Cruz Sc-40; western blot 1:1,000).
The full-length, N-terminal (amino acids (aa) 1-245 of SEQ ID NO: 4) and C-terminal (aa 235-614 of SEQ ID NO:4) MYC-NCOA4 were incubated with ferritin purified from horse spleen (Apoferritin (Sigma, A3641-100 mg), consisting of a mixture of FTH1 and FTL subunits) and anti-MYC immunoprecipitation was performed followed by immunoblotting as described above.

[2] = molecular target: T3, apo-ferritin purified from equine spleen (Equus caballus, UniProt Q8MIP0); test: GST pull-down assay of ferritin using GST-NCOA4 fragments; details: anti-FTH1 immunoblot, FIGS. 7, 8, 11
T3 construct: apo-ferritin purified from equine spleen; purchased Sigma F4503; host or cells: equine spleen
T3 sequence (Q8MIP0 whole entry, the tested form may be a part): as the sequence (Q8MIP0 whole entry) above
T3 sequence (P02791 2-175 partner limits assumed): as the sequence (P02791 2-175 partner limits assumed) above
Excerpt: GST-tagged NCOA4 constructs were also made to probe the interactions of C-terminal portions of NCOA4 with ferritin. NCOA4-truncation constructs were produced using Gateway cloning (Invitrogen, Life Technologies, catalog #11789-013 and 11791-019) into a pDEST60 N-terminal GST fusion plasmid (GST-NCOA4) from EMD Millipore (Gateway Nova pET-60-DEST, product #71851-3) and transformed in E. coli BL21 (DE3) cells (New England Biosciences, C2527I).
NCOA4 truncation constructs were designed based on NCBI reference sequence: NP_001138735.1 (SEQ ID NO: 4). In particular, fragments of SEQ ID NO: 4 consisting of amino acids (aa) 1-245, aa 235-614, aa 235-560, aa 235-401, aa 383-560, aa 545-614, aa 383-522, aa 510-560, aa 383-436, aa 436-485, aa 475-522, aa 475-500, aa 480-500, aa 480-504, aa 485-509, aa 490-514, aa 495-522 were designed. Protein expression in the DE3 cells was induced with 1 mM isopropyl-beta-D-thiogalactopyranoside (IPTG) (Sigma, I6758-10 G) for 3 hours at 37° C. Cells were collected by centrifugation, re-suspended in 25 mM Tris-HCl (pH 7.4), 10% (w/v) sucrose and lysed with a single freeze-thaw cycle followed by sonication. After centrifugation, a GST pull-down assay was performed.
as §1

recombinant human FTL = molecular target: T4, recombinant human FTL (Homo sapiens, UniProt P02792); test: GST pull-down assay of recombinant FTL using GST-NCOA4; details: recombinant FTL from E. coli, 0.2 μg and 1 μg; FIG. 10B; listed as GST-NCOA4 fragment
T4 construct: made in house; host or cells: Rosetta E. coli (EMD Millipore, 70953-3)
T4 sequence (P02792 whole entry, the tested form may be a part): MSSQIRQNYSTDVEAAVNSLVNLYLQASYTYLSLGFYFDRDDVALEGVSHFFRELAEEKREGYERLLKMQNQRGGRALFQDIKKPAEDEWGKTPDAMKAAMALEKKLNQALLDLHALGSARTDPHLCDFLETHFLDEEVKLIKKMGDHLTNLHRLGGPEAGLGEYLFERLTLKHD
Method: as §1, §2

T1 sequence (P02794 whole entry): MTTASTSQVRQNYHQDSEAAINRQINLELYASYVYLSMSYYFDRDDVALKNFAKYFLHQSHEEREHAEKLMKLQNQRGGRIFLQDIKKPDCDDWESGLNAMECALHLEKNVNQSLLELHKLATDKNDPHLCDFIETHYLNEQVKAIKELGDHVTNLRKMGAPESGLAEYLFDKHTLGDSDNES

B1: aa 235-614: NCOA4 C-terminal fragment, amino acids 235-614 of SEQ ID NO: 4 (protein)
chain: ENSQTSSRACNFFNNVGGNLKGLENWLLKSEKSSYQKCNSHSTTSSFSIEMEKVGDQELPDQDEMDLSDWLVTPQESHKLRKPENGSRETSEKFKLLFQSYNVNDWLVKTDSCTNCQGNQPKGVEIENLGNLKCLNDHLEAKKPLSTPSMVTEDWLVQNHQDPCKVEEVCRANEPCTSFAECVCDENCEKEALYKWLLKKEGKDKNGMPVEPKPEPEKHKDSLNMWLCPRKEVIEQTKAPKAMTPSRIADSFQVIKNSPLSEWLIRPPYKEGSPKEVPGTEDRAGKQKFKSPMNTSWCSFNTADWVLPGKKMGNLSQLSSGEDKWLLRKKAQEVLLNSPLQEEHNFPPDHYGLPAVCDLFACMQLKVDKEKWLYRTPLQM
modifications: Homo sapien
Recombinant human FTH1; listed as GST-NCOA4 fragment
  binding of GST-NCOA4 to FTH1: binds to FTH1
Recombinant human FTH1; listed as NCOA4 C-terminus
  binding of GST-NCOA4 to FTH1: interacted with the NCOA4 C-terminus
[1]
  association of MYC-NCOA4 construct with ferritin: associated with ferritin
[1]; listed as C-terminal NCOA4
  association of MYC-NCOA4 construct with ferritin: bind to ferritin
[2]
  binding of GST-NCOA4 fragment to ferritin: bound to ferritin
Recombinant human FTL
  binding of GST-NCOA4 to FTL: binds minimally to FTL

Reference: patent US10350264B2, “Compositions and methods for modulating NCOA4-mediated autophagic targeting of ferritin” (Dana-Farber Cancer Institute, Inc., priority 2014, dated 2019)
